According to patent publication US20160185876A1 (DEVELOPMENT CENTER FOR BIOTECHNOLOGY, published 2016):
Each block holds one binder with its values, some of them ahead of it.

Legend:
human ENO1 protein [1] = molecular target: T1, human ENO1 protein (human, UniProt P06733 1-434, limits assumed); experiment: SPR, BIAcore 2000, ENO1 injected, 25 degree C
T1 construct: The source and construct of the ENO1 protein used in ELISA and SPR are not described; also called alpha-enolase; enolase-1
From the text: To know the biding kinetics difference among individual antibodies, surface plasmon resonance (SPR) measurement with a BIAcore 2000 (BIAcore, Inc., Piscataway, N.J.) was used as previously described (Karlsson & Falt, (1997) J. Immunol Methods 200:121-133). Carboxymethylated dextran biosensor chips (CMS, BIAcore Inc.) were activated with N-ethyl-N′-(3-dimethylaminopropyl)-carbodiimide hydrochloride (EDC) and N-hydroxysuccinimide (NHS) according to the supplier's instructions. Chimera EN10 mAb was diluted with 10 mM sodium acetate, pH 4.8, into 5 microgram/ml before injection at a flow rate of 20 micro Uminute to achieve approximately 100 response units (RU) of coupled protein followed by the injection of 1M ethanolamine to block unreacted groups. For kinetics measurements, two-fold serial dilutions of ENO1 (0.3125 nM to 40 nM) were injected in HBS-P Biacore running buffer provided by the manufacturer (BIAcore, Inc., Piscataway, N.J.) at 25 degree C. at a flow rate of 25 microL/min, and binding responses on the EN10 mAb were corrected by subtraction of responses on a blank flow cell. Association rates (kon or ka) and dissociation rates (koff or kd) were calculated using a simple one-to-one Langmuir binding model with separate fittings of kon and koff was used. (BIAcore™ Evaluation Software version 3.2).

human ENO1 protein [2] = molecular target: T1, human ENO1 protein; experiment: ENO1 binding ELISA

T1 sequence (P06733 whole entry): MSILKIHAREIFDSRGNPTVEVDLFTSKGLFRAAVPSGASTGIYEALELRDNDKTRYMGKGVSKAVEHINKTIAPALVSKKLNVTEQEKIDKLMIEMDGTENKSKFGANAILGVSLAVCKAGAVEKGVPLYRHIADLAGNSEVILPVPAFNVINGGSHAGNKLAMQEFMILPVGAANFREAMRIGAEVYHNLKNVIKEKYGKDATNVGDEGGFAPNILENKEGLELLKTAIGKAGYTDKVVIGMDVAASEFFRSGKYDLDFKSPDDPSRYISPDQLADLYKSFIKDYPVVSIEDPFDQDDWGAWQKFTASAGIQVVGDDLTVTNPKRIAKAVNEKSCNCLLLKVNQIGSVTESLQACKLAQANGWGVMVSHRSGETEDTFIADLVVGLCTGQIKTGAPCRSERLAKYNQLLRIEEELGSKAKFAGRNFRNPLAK

Kd (human ENO1 protein [1]): 500 pM
koff (human ENO1 protein [1]): 0.000176 s⁻¹
kon (human ENO1 protein [1]): 351000 M⁻¹ s⁻¹
B1: hum EN10 mAb 4D5 (antibody, V domains shown)
VH: EVQLVESGGGLVQPGGSLRLSCAASGYTFTSCVMNWVRQAPGKGLEWVAYINPYNDGTKYNEKFKGRFTISRDDSKNTLYLQMNSLRAEDTAVYYCAREGFYYGNFDNWGQGTLVTVSS
VL: DIQMTQSPSSLSASVGDRVTITCRASENIYSYLTWYQQKPGKAPKLLIYNAKTLPEGVPSRFSGSGSGTDFTLTISSLQPEDFATYYCQHHYGTPYTFGQGTKLEIKR
notes: Humanized variable regions on human IgG; also called humanized EN10 mAb 4D5; 4D5 humanized edition

Kd (human ENO1 protein [2]): 36.5 pM
Kd (human ENO1 protein [1]): 219 pM
koff (human ENO1 protein [1]): 0.000116 s⁻¹
kon (human ENO1 protein [1]): 531000 M⁻¹ s⁻¹
B2: hum EN10 mAb IMGT (antibody, V domains shown)
VH: QVQLVQSGAEVKKPGASVKVSCKASGYTFTSCVMNWVRQAPGQGLEWMGYINPYNDGTKYNEKFKGRVTMTTDTSTSTAYMELRSLRSDDTAVYYCAREGFYYGNFDNWGQGTLVTVSS
VL: B1 VL
notes: Humanized variable regions on human IgG; also called Hum EN10 IMGT; humanized EN10 mAb IMGT
